Results as given in patent US6586197B1, “Methods and materials for identifying novel pesticide agents” (priority 1999, dated 2003).

Columns and labels:
[1] = system: Sf21 cells transfected with pHSP120; assay: Toxicity assay (Trypan blue cell mortality), Sf21 cells expressing M. sexta 120 kDa APN; conditions: 2 h
Procedure: (§1) The pHSP120 plasmid DNA was isolated and purified using a Plasmid Maxi Kit (Qiagen, Valencia, Calif.). Sf21 (IPLB-Sf21) cells (Vaughn et al., 1977) were plated at 1.8×10^6 cells per plate (60 mm diameter) prior to transfection with pHSP120 DNA. Plasmid DNA (10 μg) was mixed with 5 μl of Lipofectin reagent (Gibco BRL, Gaithersburg, Md.) and combined with 1 ml of TC-100 medium (Gibco BRL, Gaithersburg, Md.). The mixture was incubated at room temperature for 15 min. Following 3 washes with TC-100 medium, the DNA/Lipofectin mixture was added to the cells, and then the cells were incubated at room temperature for 4 h on a rocker. After removal of DNA/Lipofectin mixture, TC-100 with 10% fetal bovine serum (4 ml) was added to the plates and the cells were incubated at 27° C. overnight. Expression of 120 kDa APN in Sf21 cells was induced by heat-shocking cells at 42° C. for 30 min the following day. After incubation at 27° C. for 24 h, the cells were collected and analyzed using immunofluorescence localization and Western blotting.
Sf21 cells (1.8×10^6) were grown and heat-shocked as described above. […] The freshly prepared toxin solution (1 ml) was added to each Sf21 cell plate and incubated at room temperature for 2 h. Cell mortality was determined by trypan blue staining as described by Thomas and Ellar (1983).
(§2) Thetoxicity of three Cry1toxins to Sf21 cells expressing M sexta 120 APN was determined. A single concentration of Cry1toxins (40 μg/ml) was used and the cell mortality was measured by Trypan blue staining (Thomas and Ellar 1983).

[2] = system: Sf21 cells transfected with pHSP-HR5; assay: Toxicity assay (Trypan blue cell mortality), control-vector Sf21 cells; conditions: 40 μg/ml toxin in insect PBS, 2 h, Trypan blue (0.1%) staining; means of three assays (±standard error); control vector
Procedure: as §1, with “Expression of 120 kDa APN in Sf21 cells was induced by heat-shocking cells at 42° C. for 30 min the following day.” left out
Sf21 cells (1.8×10^6) were grown and heat-shocked as described above. […] Cell mortality was determined by trypan blue staining as described by Thomas and Ellar (1983).
as §2

[3] = system: expressed 120 kDa APN on Sf21 cells transfected with pHSP120; assay: Immunofluorescence binding of rhodamine-labeled toxins to Sf21 cells (confocal microscopy), pHSP120; parameters: species or system Manduca sexta; conditions: toxin 1 μg/ml, fixed Sf21 cells transfected with pHSP120
Procedure: Growth of B. thuringiensis strains, trypsin activation, and fast-performance liquid chromatography (Pharmacia) purification of Cry1Ac, […] and Cry3a toxins were done as previously described (Garczynski et al 1991; Lu and Adang 1996). […] The purified Cry1Ac and Cry1Ba (200 μg) were labeled with 5-(and-6)-carboxytetramethylrhodamine, succinimidyl ester [5(6)-TAMRA SE] (Molecular Probe, Eugene, Oreg.) according to the manufacturer's instructions. Briefly, 5(6)-TAMRA (5 mg) were dissolved in 0.5 ml of Dimethylformamide (DMF) immediately before starting the labeling. The dye solution (100 μl) was slowly added into 500 μl of toxin sample (200 μg toxins) and incubated for 1 h at room temperature. The reaction was stopped by adding 0.1 ml of 1.5 M hydroxylamine, pH 8.5, and then the mixture was incubated. for 1h at room temperature. […]
Sf21 cells were plated onto a microscope cover glass (18×18 mm) in a tissue culture dish (60×15 mm diameter), and then transfected and heat-shocked as described above. […] Immunostained cells were observed using fluorescence microscopy or fluorescence confocal microscopy (Center for Advanced Ultrastructural Research, University of Georgia).
Since the expressed 120 kDa APN located on Sf21 cell surfaces, we examined the binding of Cry1toxins to Sf21 cells using double immunofluorescence staining. […] And then cells were viewed by fluorescence confocal microscopy.

[4] = system: expressed 120 kDa APN from Sf21 cells; assay: Toxin affinity chromatography and anti-APN immunoblot, Sf21 cells; format: binding, Manduca sexta; conditions: CHAPS-solubilized Sf21 cells, anti-APN immunoblot (FIG. 13)
Procedure: Affinity purification method of M. sexta 120 kDa APN from Sf21 cells or M. sexta midgut BBMV was described in Luo et al (1996). Briefly, Cry1Ac, Cry1Ba and Cry3a toxins (200 μg) were coupled to 400 μl of cyanogen bromide-activated Sepharose 4B in 20 mM Na2CO3, pH 9.6. M sexta BBMV (1 ml, 3.4 mg/ml proteins) or Sf21 cells (10^7 cells) were solubilized with 2% 3-[(3-cholamidopropyl) dimethylammoniol]-1-propane-sulphonate (CHAPS) in buffer A (50 mM Na2CO3, pH 9.6, 200 mM NaCl, 5 mM EGTA, 0.1% CHAPS). Insoluble material was removed by centrifugation at 27,000×g for 30 min at 4° C. CHAPS-solubilized BBMV (1 ml) or Sf21 cells (2 ml) were then added to the toxin-coupled Sepharose beads equilibrated with Buffer A. The mixture was incubated at 4° C. overnight. After washing with 100 ml of Buffer A, the binding protein-toxin complex was dissociated from the beads by heating in SDS-PAGE sample buffer at 100° C. for 5 min. The samples were separated by 8% SDS-PAGE, and then electrophoretically transferred to nitrocellulose membrane (Millipore Corp., Bedford, Mass.) in transfer buffer (Towbin et al., 1979) at 4° C. overnight. The membrane was blocked with 5% non-fat dry milk in PBST at room temperature for 1 h, and then probed with anti-APN antibody (0.5 μg/ml) in PBST containing 0.1% non-fat dry milk for 2 h. […]

[5] = biological target: T1, native 120 kDa APN from M sexta BBMV (Manduca sexta, UniProt Q11001); assay: Toxin affinity chromatography and anti-APN immunoblot, midgut BBMV; format: binding; conditions: CHAPS-solubilized M sexta BBMV, anti-APN immunoblot (FIG. 13)
T1 construct: native 120 kDa APN from M sexta BBMV; from tissue; host or cells: brush border membrane vesicles from midguts of 5th instar M. sexta larvae, CHAPS-solubilised
T1 sequence (Q11001 36-968): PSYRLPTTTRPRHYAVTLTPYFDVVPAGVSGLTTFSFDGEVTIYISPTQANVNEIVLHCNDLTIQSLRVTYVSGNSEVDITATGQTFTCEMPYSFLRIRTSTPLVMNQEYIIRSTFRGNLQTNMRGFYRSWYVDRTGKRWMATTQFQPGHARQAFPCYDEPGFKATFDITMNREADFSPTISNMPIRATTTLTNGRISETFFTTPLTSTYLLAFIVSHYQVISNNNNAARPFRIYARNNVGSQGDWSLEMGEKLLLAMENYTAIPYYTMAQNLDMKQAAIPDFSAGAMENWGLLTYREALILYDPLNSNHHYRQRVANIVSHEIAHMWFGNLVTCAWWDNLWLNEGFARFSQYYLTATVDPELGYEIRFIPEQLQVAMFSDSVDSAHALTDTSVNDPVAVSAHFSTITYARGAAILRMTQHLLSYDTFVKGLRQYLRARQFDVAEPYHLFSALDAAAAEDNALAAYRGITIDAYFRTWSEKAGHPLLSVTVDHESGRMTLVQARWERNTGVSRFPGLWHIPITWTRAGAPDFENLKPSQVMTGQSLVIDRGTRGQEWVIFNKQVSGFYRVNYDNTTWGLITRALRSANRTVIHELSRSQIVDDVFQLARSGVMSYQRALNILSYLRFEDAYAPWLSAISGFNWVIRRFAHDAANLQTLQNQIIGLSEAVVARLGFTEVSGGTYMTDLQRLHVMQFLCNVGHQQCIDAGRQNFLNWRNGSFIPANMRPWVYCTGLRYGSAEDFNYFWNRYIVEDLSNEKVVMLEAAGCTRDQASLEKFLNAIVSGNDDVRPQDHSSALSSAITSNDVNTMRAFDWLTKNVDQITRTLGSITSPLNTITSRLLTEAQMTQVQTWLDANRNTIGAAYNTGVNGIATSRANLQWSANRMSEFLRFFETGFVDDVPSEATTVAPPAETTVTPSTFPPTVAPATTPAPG
Procedure: M. sexta larvae were reared on artificial diet (Southland Products, Inc.; Lake Village, Ark.) at 26° C., 70% relative humidity with a photoperiod of 12:12 (Light:Dark) h. Midguts were dissected from second day 5th instar larvae, and either immediately used to prepare brush border membrane vesicles (BBMV) or stored at −80° C. BBMV were prepared according to that described in Wolfersberger et al. (1987) as modified in Ferre et al. (1991) and stored in 0.3 M mannitol, 5 mM EGTA, 17 mM Tris-Cl, pH 7.5, at −80° C. until needed. The 115 kDa M. sexta APN was purified as described previously (Lu and Adang, 1996).
Affinity purification method of M. sexta 120 kDa APN from Sf21 cells or M. sexta midgut BBMV was described in Luo et al (1996). Briefly, Cry1Ac, Cry1Ba and Cry3a toxins (200 μg) were coupled to 400 μl of cyanogen bromide-activated Sepharose 4B in 20 mM Na2CO3, pH 9.6. M sexta BBMV (1 ml, 3.4 mg/ml proteins) or Sf21 cells (10^7 cells) were solubilized with 2% 3-[(3-cholamidopropyl) dimethylammoniol]-1-propane-sulphonate (CHAPS) in buffer A (50 mM Na2CO3, pH 9.6, 200 mM NaCl, 5 mM EGTA, 0.1% CHAPS). Insoluble material was removed by centrifugation at 27,000×g for 30 min at 4° C. CHAPS-solubilized BBMV (1 ml) or Sf21 cells (2 ml) were then added to the toxin-coupled Sepharose beads equilibrated with Buffer A. The mixture was incubated at 4° C. overnight. […]

[6] = 40 μg/ml toxin, the sentence does not say which plasmid

B1: Cry1Ba (65 kDa): B. thuringiensis Cry1Ba toxin, 65 kDa form, provided by Dr. Masson (protein)
chain: IEDSLCIAEGNNIDPFVSASTVQTGINIAGRILGVLGVPFAGQLASFYSFLVGELWPRGRDQWEIFLEHVEQLINQQITENARNTALARLQGLGDSFRAYQQSLEDWLENRDDARTRSVLYTQYIALELDFLNAMPLFAIRNQEVPLLMVYAQAANLHLLLLRDASLFGSEFGLTSQEIQRYYERQVERTRDYSDYCVEWYNTGLNSLRGTNAASWVRYNQFRRDLTLGVLDLVALFPSYDTRTYPINTSAQLTREVYTDAIGATGVNMASMNWYNNNAPSFSAIEAAAIRSPHLLDFLEQLTIFSASSRWSNTRHMTYWRGHTIQSRPIGGGLNTSTHGATNTSINPVTLRFASRDVYRTESYAGVLLWGIYLEPIHGVPTVRFNFTNPQNISDRGTANYSQPYESPGLQLKDSETELPPETTERPNYESYSHRLSHIGIILQSRVNVPVYSWTHRSADRTNTIGPNRITQIPMVKASELPQGTTVVRGPGFTGGDILRRTNTGGFGPIRVTVNGPLTQRYRIGFRYASTVDFDFFVSRGGTTVNNFRFLRTMNSGDELKYGNFVRRAFTTPFTFTQIQDIIRTSIQGLSGNGEVYIDKIEIIPVTATFEAEYDLER
Mortality (%) (±SE), Cells transfected with pHSP 120 ([1]; 40 μg/ml toxin in insect PBS, Trypan blue (0.1%) staining, means of three assays (±standard error)): 17.6 (±0.9) % | Mortality of Sf21 cells (cells killed) [1, 6]: about 17% | Toxicity to Sf21 cells in words [1, 6]: low toxicity | Mortality (%) (±SE), Cells transfected with pHSP-HR5 [2]: 16.5 (±0.1) % | Binding of rhodamine-labeled toxin (immunofluorescence) [3]: only bound weakly | Binding of APN to toxin affinity column [4]: bound weakly | Binding of APN to toxin affinity column [5]: bound weakly

B2: Cry3a: trypsin-activated, purified B. thuringiensis Cry3a toxin (protein)
chain: NPHSQGRIRELFSQAESHFRNSMPSFAISGYEVLFLTTYAQAANTHLFLLKDAQIYGEEWGYEKEDIAEFYKRQLKLTQEYTDHCVKWYNVGLDKLRGSSYESWVNFNRYRREMTLTVLDLIALFPLYDVRLYPKEVKTELTRDVLTDPIVGVNNLRGYGTTFSNIENYIRKPHLFDYLHRIQFHTRFQPGYYGNDSFNYWSGNYVSTRPSIGSNDIITSPFYGNKSSEPVQNLEFNGEKVYRAVANTNLAVWPSAVYSGVTKVEFSQYNDQTDEASTQTYDSKRNVGAVSWDSIDQLPPETTDEPLEKGYSHQLNYVMCFLMQGSRGTIPVLTWTHKSVDFFNMIDSKKITQLPLVKAYKLQSGASVVAGPRFTGGDIIQCTENGSAATIYVTPDVSYSQKYRARIHYASTSQITFTLSLDGAPFNQYYFDKTINKGDTLTYNSFNLASFSTPFELSGNNLQIGVTGLSAGDKVYIDKIEFIPVN
Binding of APN to toxin affinity column [4]: did not bind
